The text below walks through data of the DeepSol protein solubility set.

A short description of the data set: soluble on expression in E. coli; label from the status in PepcDB or PDB records.
As to “SANEAYPCPCDIGHRLEYGGLGREVQVEHIKAYVTKSPVDAGKAVIVIQDIFGWQLPNTRYIADMISGNGYTTIVPDFFVGQEPWDPSGDWSIFPEWLKTRNAQKIDREISAILKYLKQQCHAQKIGIVGFCWGGTAVHHLMMKYSEFRAGVSVYGIVKDSEDIYNLKNPTLFIFAENDVVIPLKDVSLLTQKLKEHCKVEYQIKTFSGQTHGFVHRKREDCSPADKPYIDEARRNLIEWLNKYM”, the “soluble on expression in E. coli” value is listed as “soluble”. Regarding “MLRNLKKTLVLDSSVFIQGIDIEGYTTPSVVEEIKDRESKIFLESLISAGKVKIAEPSKESIDRIIQVAKETGEVNELSKADIEVLALAYELKGEIFSDDYNVQNIASLLGLRFRTLKRGIKKVIKWRYVCIGCGRKFSTLPPGGVCPDCGSKVKLIPRKRLEHHHHHH”, the “soluble on expression in E. coli” value is “not soluble”. Consider “MSLAKLNMNNEIKKVEQRLEKAIKSKDSVLEQASLHLLSSGGKRVRPAFVILSSQFGKDEQTSEQTYQVAVALELIHMATLVHDDVIDKSDKRRGKLTISKKWDQTTAILTGNFLLALGLEHLMAVKDNRVHQLISESIVDVCRGELFQFQDQFNSQQTIINYLRRINRKTALLIQISTEVGAITSQSDKETVRKLKMIGHYIGMSFQIIDDVLDFTSTEKKLGKPVGSDLLNGHITLPILLEMRKNPDFKLKIEQLRRDSERKEFEECIQIIRKSDSIDEAKAVSSKYLSKALNLISELPDGHPKSLLLSLTKKMGSRNTEGHHHHHH”, for which the “soluble on expression in E. coli” value is “soluble”. As for “VKEIIDGFLKFQREAFPKREALFKQLATQQSPRTLFISCSDSRLVPELVTQREPGDLFVIRNAGNIVPSYGPEPGGVSASVEYAVAALRVSDIVICGHSNCGAMTAIASCQCMDHMPAVSHWLRYADSARVVNEARPHSDLPSKAAAMVRENVIAQLANLQTHPSVRLALEEGRIALHGWVYDIESGSIAAFDGATRQFVPLAANPRVCAIPLRQPTAA”, the “soluble on expression in E. coli” value is on record as “soluble”. As to “MSLANNKVHFIAIGGAVMHNLALALHHKGYLVSGSDDEIFEPSRTRLAAYNLLPAEMGWFPEKITTDLDAVILGMHARNDNPELQKARELGIKIYSFPEYIYEQSKDKQRIVIAGSHGKTTITAMIMHVLKTHKRKFDYLVGAKLDGFETMVQITDDAPIIIIEGDEYLTSPLDLTPKFLHYHHHIGLISGVAWDHINVYPTFEEYVKQFDAFADSTPKGGILIYSESDDLATLVADKPRPDVQAIGYSAPKHEIVNGITYLLTDKGKIELEVFGKHNLKNINAAKNVCLKIGITEAMFYDAIKTFKGAANRLEILGRGKHNVVFKDFAHAPSKLKATSKAVKKQFSDRKLIAVLELHTFSSLNKEFLSQYKDTYKAPDEPIVYFNPETVKHKRLEEITEADIIEAFDNPKLNVFTDSKKLEEFLFSHDWKHSNLLLMSSGNFGGIDLKKLTSHVLNQHAEGHHHHHH”, the “soluble on expression in E. coli” value is “soluble”.

Take “MGSDKIHHHHHHMTDRVLILGGRGRIGSSVAQDLANHTQAQITITGRSAEFGKAVSLSSGGQVQFLVLDLVEVDKLQNAIANSNLVIHCAGPFHYRDTNVLETCIAQGVNYVDVSDHRSYTSKALNFSEQAAAAGVTAIINTGIFPGISNSMVRQGVEQFDKPENIHLSYLVSGSGGAGITVMRTTFLGLQYPFETWIDGKWQVIKPYSERELVEFPPPYGRSGVYWFDMPETFTLPKAFPSVKTVITKFGSVPDFYNHLTWIAAHIFPKWLMQRRYMIEFLSHVSHSMTDVTNNFSGIGVAVRSEVTGQKDGKTAVYCSTVVHENTALASGCGTGSIAQLLLEGKLKKPGVFAVEEALPTDLFEEVMQSRGIKINHSWL”: the “soluble on expression in E. coli” value is listed as “not soluble”. “MVGAYSYSEGLETLVENGTITSQSTLQQWLEAELSYGAIRLEAAVMVRAYQAATMDDMETLCYWNLWLSAARETQELRNSSWQMGRSLMQLLGKIQPEILPLANAVGNPCNYAIAFGIASAHWQINIQAALLAYLHSWATNLITAGVKLIPLGQTAGQELLLQLQPLISHATVEIMSLKDDELSCCSWGLSLASMQHETQYTRLFRSLEHHHHHH”: the “soluble on expression in E. coli” value was “not soluble”. “KKIIHELLDDILFFETAPTIHKVILHGKNRQVEFYGKLKSIEKMLDESFYRCHRSYIVNKKNIHELDTTKGVVKMSNGENCYASSKLIKSLSL”: the “soluble on expression in E. coli” value is recorded as “not soluble”. On to “MSLDVKNLAKWKKVPPVSDRIANTFVALKMLREVDEEHNPVLFSKAHRDNIYTVIDISHESPVYNPASLEAGGIHYQKYPTVSKIPPTPDEVRDFIALVDRLQKEITEKMEKSNTSGAARLRPVVGVHCHYGFNRTGFLIVSYLIERCGFGVQEAIDEFEKRRPPGIRHAHFIDTLFVRYCVGLKRAPTEGHHHHHH”, for which the “soluble on expression in E. coli” value is on record as “not soluble”. The value for “MSLDLPSRPPAPPEGVIGRRIRYADALEPEREEWFVAGTELAEVTAPEAPTPRIETPADGMIIALDPDIPARNQKLILRARPARAGMSFLLDGRPVGPAETPVKWPPEPGGHVLKLMDDRGRTLDLVKFQVRGMREGHHHHHH” was “soluble”. Regarding “MGSDKIHHHHHHMSRFVLITPDVSFDGRLRQAVAGGLQGGVQTFFTSLLPADPNDLFAHLDQERPEVLILGPDVPVEEALRLATVMNVRFPELSVILASEPDPDFILQAMRAGIRDILSPDSDAAQIRVLLERASQQFAGRYRVQAAAPMTDTNKGLVIGVFSPKGGVGKTTIATNIAVGLGKIAPMSVVIVDLDLQFGDVASALYLDPQHTVTDAVSPAASQDSLVLKAFLTVHPASIYAVCAPPTPVDADEITPEQVSRLLEQLSEQFQYVVVDTAPGLPEIGLAAMEQCTDVVWVSGMDIPSVRGLRSGLDVLRQLDILPETRHVVLNMADSKLGLTVQDLESTIGAPVDVSIPRSRAVALSTNRGIPVLQESAKDPATKGLNQLVNRFNPAWRATSQRKLHRRVVV”, the “soluble on expression in E. coli” value was “not soluble”. “MLELFLKEEWTTEAKEILRPFGQKKLIGIQMGASNRSRQWFVERWIELAKRIIERDEEVVIVFVGSKNELEEISLVAQALPQDRVFISAGRLSLGAAAALIGELGLLFTPDTGPLHIAVALRVKTISLFAVANPKNSLPDYDQSLHRYIKVDRCCEPCVGKRCAYQKCMEAIGVDEVYEEYKKLQELEHHHHHH”: the “soluble on expression in E. coli” value is “soluble”. “MGSDKIHHHHHHMKLKTKTMEWSGNSLKLLDQRKLPFIEEYVECKTHEEVAHAIKEMIVRGAPAIGVAAAFGYVLGLRDYKTGSLTDWMKQVKETLARTRPTAVNLFWALNRMEKVFFENADRENLFEILENEALKMAYEDIEVNKAIGKNGAQLIKDGSTILTHCNAGALATVDYGTALGVIRAAVESGKRIRVFADETRPYLQGARLTAWELMKDGIEVYVITDNMAGWLMKRGLIDAVVVGADRIALNGDTANKIGTYSLAVLAKRNNIPFYVAAPVSTIDPTIRSGEEIPIEERRPEEVTHCGGNRIAPEGVKVLNPAFDVTENTLITAIITEKGVIRPPFEENIKKILEV”: the “soluble on expression in E. coli” value is listed as “not soluble”. The value for “MARLTVHTLETAPEAAKARVEAVLQNNGFIPNLIGVLSNAPEALAFYQEVGKLNAANSLTAGEVEVIQIIAARTNQCGFCVAGHTKLATLKKLLSEQSVKAARALAAGEFDDAKLGALAAFTQAVMAKKGAVSDEELKAFFDAGYNQQQAVEVVMGVALATLCNYVNNLGQTEINPELQAYA” was “soluble”; that for “MHHHHHHSSGRENLYFQGSTKGDINQYYTLENTIGRGSWGEVKIAVQKGTRIRRAAKKIPKYFVEDVDRFKQEIEIMKSLDHPNIIRLYETFEDNTDIYLVMELCTGGELFERVVHKRVFRESDAARIMKDVLSAVAYCHKLNVAHRDLKPENFLFLTDSPDSPLKLIDFGLAARFKPGKMMRTKVGTPYYVSPQVLEGLYGPECDEWSAGVMMYVLLCGYPPFSAPTDSEVMLKIREGTFTFPEKDWLNVSPQAESLIRRLLTKSPKQRITSLQALEHEWFEKQLSSSPRNLL” was “soluble”.

Regarding “MGSDKIHHHHHHMAKIHMVLQGKGGVGKSMIAATIAQYKAGKGQKPLCIDTDPVNATFEGYKALNVRRLNIMDGDEINTRNFDALVEMIASAEGDVIIDNGASSFVPLSHYLISNQVPALLQDMGHELVVHTVVTGGQALVDTVSGFAQLASQFPAECLFVVWLNPYWGPIEHEGKGFEQLKAYTTNKGRVSAIIQIPALKEETYGRDFAEMLQDRRTFDEALADSALTIMTRQRLKIVKTQLFAQLENAAVL”, the “soluble on expression in E. coli” value is reported as “not soluble”. In the case of “MGSDKIHHHHHHMKVQYSFEREFEELMSDLLSKYGYEMFQMDGLGDQLDVVKFTEDFVRRGIIESTIDANANVRVTNISTYFIEISKPHTYLYSLYRIWQKMKEMFGKGVADEFVEAQINGAVYLHDRHHAALMPYCFAYTLKPIVEKGLPFIKTIKSEPAKHLSTFIQHVIQFVMFASNQSSGAVGLPDFFVWMWYFVKKDLKEGIIPRDKLDWYIEQHFQILTYSLNQPIRTTQSPYTNFTYLDRNYIKAIFEGERYPDGSLITDHVEDIIALQKHYWEWVSRERERQMFTFPVLTASLLYKDGKFLDEDSARFINKINMKWQDTNWYISDSIDAVASCCRLTSSTQTLKKFSLSSEEEEKLKGRMNSIGGSDLNIGSFKVITVNLPRIALESGGDREKYLQILRHRVQLIKKALAAVREIIKERISEGLLPLYENGLMLLNRQYGTIGVTGVWESASIMGLTTEDIDGLKYTEEGEVFVDNVLDTIREEAEKGYHEYGFTFNIEQVPAEKAAVTLAQKDRFLFGEKQPFEIYSNQWVPLMANTDVLNRIRYSGKWDKKVSGGAILHINLGESFKTEEESFNMVKMIADMGVMYFAFNTKISVCEDGHAFYGERCPVCGKAKVDEYMRIVGYLVPVSAFNKERREIEYPRRQFYDSLTIRR”, the “soluble on expression in E. coli” value is on record as “not soluble”. With “MSFTPELNMAVCEFNLDSGCNAKESLIEMANNKISLETFKEHNIKALTMKYVNSESMMWEARKIVRIISRLEADEHQSRVAPKRSRSPGSTSPSASNSSSSSSELSFDMFSSKRTVPMKVTSKPKRVIAQASRTMKPHQQESRQESAEKDRANDEKLKKFIESRKLKEQAKKAANIQKCNEVKEAVMFPAKRMKKRQLEQYAYRFK”, the “soluble on expression in E. coli” value was “not soluble”. For “MGVYDYKNFGTADSKALFSDAMAITLYSYHNLDNGFAAGYQHNGFGLGLPATLVTALLGGTDSQGVIPGIPWNPDSEKLALDAVKKAGWTPITASQLGYDGKTDARGTFFGEKAGYTTAQVEILGKYDAQGHLTEIGIAFRGTSGPRENLILDSIGDVINDLLAAFGPKDYAKNYVGEAFGNLLNDVVAFAKANGLSGKDVLVSGHSLGGLAVNSMADLSGGKWGGFFADSNYIAYASPTQSSTDKVLNVGYENDPVFRALDGSTFTGASVGVHDAPKESATDNIVSFNDHYASTAWNLLPFSILNIPTWISHLPTAYGDGMNRIIESKFYDLTSKDSTIIVANLSDPARANTWVQDLNRNAETHKGSTFIIGSDSNDLIQGGSGNDYLEGRAGNDTFRDGGGYNVILGGAGNNTLDLQKSVNTFDFANDGAGNLYVRDANGGISITRDIGSIVTKEPGFLWGLFKDDVTHSVTASGLKVGSNVTQYDASVKGTNGADTLKAHAGGDWLFGLDGNDHLIGGVGNDVFVGGAGNDLMESGGGADTFLFNGAFGQDRVVGFTSNDKLVFLGVQGVLPNDDFRAHASMVGQDTVLKFGGDSVTLVGVALNSLSADGIVIA”, the “soluble on expression in E. coli” value was “soluble”. Consider “MGSDKIHHHHHHMTKHPLKSLAASVRAAIADPARTTFVGSDANPRFELFHAASSLCSQKVRTVLFEKQLPYRSNDMKILSSMGPDGVVPAEHYHAPYVGLRLIAGEEIGREFVSGYSGRTSVQTEGFDPCVVPLLVDYEASRVIADSRRICCYLDAVSRNPVQLVPEDADARALVMQQVDIVDRIPNGTLLYGFHPDADLRPEALRTVMESVYDYKVAALKAMIDANADNAELVSAYRAKIAKEQGGKSVRHDAALQRAARDHVAVLLADLDRLLGTSSPYLLGPHFSLGDVLWGVNLTRLAYLGLASMWKDRPNVIRYVNALLTRPSLRKEAVRATMDSMPPSRYFDVVSGTAEVASM”, for which the “soluble on expression in E. coli” value was “not soluble”.
